According to paper PMC5597230, “Identification and characterization of preferred DNA-binding sites for the Thermus thermophilus transcriptional regulator FadR”:
Substitutions are numbered along the chain they refer to.

B1: ST2_FadR_TTHA0390 (dsDNA)
DNA 1: AGGAATTCGTGCAGAGGTGAATTTGAACCGGGTATAATTACCATCCCTCCAGAAGCTTGG
DNA 2: CCAAGCTTCTGGAGGGATGGTAATTATACCCGGTTCAAATTCACCTCTGCACGAATTCCT
B2: ST2_FadR_TTHA0402 (dsDNA)
DNA 1: B1 DNA 1 with G30C, G31A
DNA 2: B1 DNA 2 with C30T, C31G
B3: ST2_FadR_TTHA1144 (dsDNA)
DNA 1: B1 DNA 1 with G25A, A26G, C29T, G30C, A34C, T35A
DNA 2: B1 DNA 2 with A26T, T27G, C31G, G32A, T35C, C36T
B4: ST2_FadR_TTHA0846 (dsDNA)
DNA 1: B1 DNA 1 with G25A, A26T, C29T, G30C, G31A, T35C, A37T
DNA 2: B1 DNA 2 with T24A, A26G, C30T, C31G, G32A, T35A, C36T
B5: ST2_FadR_TTHA1118 (dsDNA)
DNA 1: B1 DNA 1 with G25A, A26T, C29T, G30C, T35A
DNA 2: B1 DNA 2 with A26T, C31G, G32A, T35A, C36T
B6: ST2_FadR_TTHA0103 (dsDNA)
DNA 1: B1 DNA 1 with A26G, G30T, T35A
DNA 2: B1 DNA 2 with A26T, C31A, T35C
B7: ST2_FadR_TTHA0604 (dsDNA)
DNA 1: B1 DNA 1 with G25A, A26T, C29T, A34C
DNA 2: B1 DNA 2 with T27G, G32A, T35A, C36T
B8: ST2_FadR_TTHA1463 (dsDNA)
DNA 1: B1 DNA 1 with G30C, T35C
DNA 2: B1 DNA 2 with A26G, C31G
B9: ST2_FadR_TTHB017 (dsDNA)
DNA 1: B1 DNA 1 with G25A, A26T, C29T, A34C, T35C
DNA 2: B1 DNA 2 with A26G, T27G, G32A, T35A, C36T
B10: ST2_FadR_R5_m4 (dsDNA)
DNA 1: B1 DNA 1 with A26C, C29T, G30T, G31A, A34C, T35C
DNA 2: B1 DNA 2 with A26G, T27G, C30T, C31A, G32A, T35G
B11: ST2_FadR_R5_m5 (dsDNA)
DNA 1: B1 DNA 1 with A26G, A27G, C29T, G30T, G31A, A34C, T35C
DNA 2: B1 DNA 2 with A26G, T27G, C30T, C31A, G32A, T34C, T35C
B12: ST2_FadR_R5_m3 (dsDNA)
DNA 1: B1 DNA 1 with G25C, A26G, C29T, G30T, G31A, A34C, T35C
DNA 2: B1 DNA 2 with A26G, T27G, C30T, C31A, G32A, T35C, C36G
B13: ST2_FadR_R5_m7 (dsDNA)
DNA 1: B1 DNA 1 with A26G, C29A, G30T, G31A, A34C, T35C
DNA 2: B1 DNA 2 with A26G, T27G, C30T, C31A, G32T, T35C
B14: ST2_FadR_R5_m1 (dsDNA)
DNA 1: B1 DNA 1 with T23G, A26G, C29T, G30T, G31A, A34C, T35C
DNA 2: B1 DNA 2 with A26G, T27G, C30T, C31A, G32A, T35C, A38C
B15: ST2_FadR_R5_wt (dsDNA)
DNA 1: B1 DNA 1 with A26G, C29T, G30T, G31A, A34C, T35C
DNA 2: B1 DNA 2 with A26G, T27G, C30T, C31A, G32A, T35C

Target: T1, FadR (Thermus thermophilus HB8, UniProt Q5SM42 1-205)
T1 sequence: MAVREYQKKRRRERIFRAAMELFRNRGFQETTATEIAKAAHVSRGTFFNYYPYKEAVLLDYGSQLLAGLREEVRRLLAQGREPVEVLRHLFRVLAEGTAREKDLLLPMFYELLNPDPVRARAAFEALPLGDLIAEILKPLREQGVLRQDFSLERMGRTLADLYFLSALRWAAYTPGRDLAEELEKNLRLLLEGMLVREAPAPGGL
Assay: EMSA; Kd in figure only; all promoter probes 0.053-11 nM; EMSA as in previous SbtR study (buffer, salt, pH, temperature not given in the material); FadR titrations up to 600 nM, IRD700-labeled probes
Conditions: protein: recombinant; tags: none stated (pET-11a); chain copies: 2; label: IRD700

Row | Binder | binding result
1 | B1 | binds
2 | B2 | binds
3 | B3 | binds
4 | B4 | binds
5 | B5 | binds
6 | B6 | binds
7 | B7 | binds

Target: T1, FadR
Assay: EMSA; very low KD stated; value in figure only; EMSA as in previous SbtR study (buffer, salt, pH, temperature not given in the material); FadR titrations up to 600 nM, IRD700-labeled probes
Conditions: protein: recombinant; tags: none stated (pET-11a); chain copies: 2; label: IRD700

Row | Binder | binding result
8 | B8 | binds
9 | B9 | binds

Target: T1, FadR
Assay: EMSA; range stated for m1,m3,m4,m5,m7; exact value only in figure; EMSA as in previous SbtR study (buffer, salt, pH, temperature not given in the material); FadR titrations up to 600 nM, IRD700-labeled probes
Conditions: protein: recombinant; tags: none stated (pET-11a); chain copies: 2; label: IRD700

Row | Binder | Kd [nM]
10 | B10 | ~4.69
11 | B11 | ~4.69
12 | B12 | ~4.69
13 | B13 | ~4.69
14 | B14 | ~4.69

Target: T1, FadR
Assay: EMSA; EMSA as in previous SbtR study (buffer, salt, pH, temperature not given in the material); FadR titrations up to 600 nM, IRD700-labeled probes
Conditions: protein: recombinant; tags: none stated (pET-11a); chain copies: 2; label: IRD700

Row | Binder | Kd [nM]
15 | B15 | 0.17
